Test results: paper doi:10.1101/2023.10.31.564985, “Cryo-EM structure of the Spo11 core complex bound to DNA” (bioRxiv, 2023)

T1: Spo11 (subunit of the purified S. cerevisiae Spo11 core complex) (S. cerevisiae, UniProt P23179 1-392)
T1 construct: Spo11, S. cerevisiae; The complex was purified on NiNTA and anti-Flag resin; Surmise: the tags are on Spo11; source: Sf9 cells, baculovirus coinfection with Rec102, Rec104 and Ski8; purified as the core complex (NiNTA, Anti-Flag M2, Superdex 200)
T1 sequence: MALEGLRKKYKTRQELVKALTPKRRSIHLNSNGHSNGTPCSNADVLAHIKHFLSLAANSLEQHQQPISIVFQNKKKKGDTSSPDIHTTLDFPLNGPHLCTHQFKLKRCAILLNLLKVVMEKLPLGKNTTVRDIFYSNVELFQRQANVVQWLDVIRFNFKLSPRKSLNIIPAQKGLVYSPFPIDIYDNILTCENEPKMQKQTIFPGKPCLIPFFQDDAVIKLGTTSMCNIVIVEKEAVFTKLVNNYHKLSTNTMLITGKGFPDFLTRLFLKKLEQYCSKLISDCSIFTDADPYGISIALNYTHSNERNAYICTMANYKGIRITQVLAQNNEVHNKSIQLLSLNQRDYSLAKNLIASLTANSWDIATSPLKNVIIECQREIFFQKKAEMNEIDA

B1: Ski8 (subunit of the purified S. cerevisiae Spo11 core complex) (natural protein)
chain: MSKVFIATANAGKAHDADIFSVSACNSFTVSCSGDGYLKVWDNKLLDNENPKDKSYSHFVHKSGLHHVDVLQAIERDAFELCLVATTSFSGDLLFYRITREDETKKVIFEKLDLLDSDMKKHSFWALKWGASNDRLLSHRLVATDVKGTTYIWKFHPFADESNSLTLNWSPTLELQGTVESPMTPSQFATSVDISERGLIATGFNNGTVQISELSTLRPLYNFESQHSMINNSNSIRSVKFSPQGSLLAIAHDSNSFGCITLYETEFGERIGSLSVPTHSSQASLGEFAHSSWVMSLSFNDSGETLCSAGWDGKLRFWDVKTKERITTLNMHCDDIEIEEDILAVDEHGDSLAEPGVFDVKFLKKGWRSGMGADLNESLCCVCLDRSIRWFREAGGK
notes: Ski8, WD-repeat protein, S. cerevisiae; source: Sf9 cells, baculovirus coinfection with Spo11, Rec102 and Rec104; purified as the core complex (NiNTA, Anti-Flag M2, Superdex 200)
B2: Rec102 (subunit of the purified S. cerevisiae Spo11 core complex) (natural protein)
chain: MARDITFLTVFLESCGAVNNDEAGKLLSAWTSTVRIEGPESTDSNSLYIPLLPPGMLKIKLNFKMNDRLVTEEQELFTKLREIVGSSIRFWEEQLFYQVQDVSTIENHVILSLKCTILTDAQISTFISKPRELHTHAKGYPEIYYLSELSTTVNFFSKEGNYVEISQVIPHFNEYFSSLIVSQLEFEYPMVFSMISRLRLKWQQSSLAPISYALTSNSVLLPIMLNMIAQDKSSTTAYQILCRRRGPPIQNFQIFSLPAVTYNK
notes: Rec102, S. cerevisiae; source: Sf9 cells, baculovirus coinfection with Spo11, Rec104 and Ski8; purified as the core complex (NiNTA, Anti-Flag M2, Superdex 200)
B3: Rec104 (subunit of the purified S. cerevisiae Spo11 core complex) (natural protein)
chain: MSIEEEDTNKITCTQDFLHQYFVTERVSIQFGLNNKTVKRINKDEFDKAVNCIMSWTNYPKPGLKRTASTYLLSNSFKKSATVSLPFILGDPVCMPKRVESNNNDTCLLYSDTLYDDPLIQRNDQAGDEIEDEFSFTLLRSEVNEIRPISSSSTAQILQSDYSALMYERQASNGSIFQFSSP
notes: Rec104, S. cerevisiae; source: Sf9 cells, baculovirus coinfection with Spo11, Rec102 and Ski8; purified as the core complex (NiNTA, Anti-Flag M2, Superdex 200)

How the values were obtained:
[1] = target: T1, Spo11 (subunit of the purified S. …); assay: cryo-EM structure; core complex (~0.2 mg/ml) incubated with 23-bp hairpin DNA with a two-nucleotide 5' overhang, molar ratio 1:2, 25 mM HEPES-NaOH pH 7.5, 150 mM NaCl, 5 mM MgCl2, 2 mM DTT, 2% glycerol, 1 hr on ice; 3.7 Å; settings: both partners purified
[2] = target: B2; assay: as above; settings: both partners purified

Binder: B1
- stoichiometry N [1]: 1

Binder: B2
- stoichiometry N [1]: 1

Binder: B3
- stoichiometry N [1]: 1
- stoichiometry N [2]: 1
